The results in this text go back to the supplement of paper PMC5998384.

Data set [1] concerns HeLa Kyoto. Nature of the data set: solubility change mitosis vs G1/S (difference of NP-40 vs SDS log2 ratios) (log2 ratio difference); higher = more soluble in mitosis.
The test system of data set [2] is HeLa Kyoto. Nature of the data set: melting temperature (median over replicates), in situ; higher = more thermally stable.
The test system of data set [3] is HeLa Kyoto. Nature of the data set: solubility in G1/S (NP-40 vs SDS abundance) (log2 ratio); higher = more soluble. The conditions noted are these: cell cycle stage: G1/S.
The subject of data set [4] is HeLa Kyoto. Put plainly: thermal stability score vs G1/S (z-score of summed log2 fold changes over temperatures); higher = more thermally stable than in G1/S.
The mark [5] stands for this setting: cell cycle stage: early G1 (4.5 h after nocodazole release).
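Throughout, for melting temperature (median over replicates), in situ: HeLa Kyoto cells synchronized by double thymidine or nocodazole block, proteins quantified by TMT10plex mass spectrometry, three independent biological replicates.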
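Throughout, for solubility change mitosis vs G1/S (difference of NP-40 vs SDS log2 ratios): synchronized HeLa Kyoto cells (double thymidine block for G1/S, nocodazole release for mitosis), protein amounts in NP-40 versus SDS lysates quantified by mass spectrometry, three biological replicates.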
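Throughout, for solubility in G1/S (NP-40 vs SDS abundance): HeLa Kyoto cells arrested at G1/S by double thymidine block, proteins quantified by TMT10plex mass spectrometry in mild NP-40 versus SDS extracts, three biological replicates.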
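Throughout, for thermal stability score vs G1/S (z-score of summed log2 fold changes over temperatures): synchronized HeLa Kyoto cells, proteins quantified by TMT10plex mass spectrometry, three biological replicates, mitosis taken 0.5 h after nocodazole release, G1/S directly after double thymidine block.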

Take “MKMADRSGKIIPGQVYIEVEYDYEYEAKDRKIVIKQGERYILVKKTNDDWWQVKPDENSKAFYVPAQYVKEVTRKALMPPVKQVAGLPNNSTKIMQSLHLQRSTENVNKLPELSSFGKPSSSVQGTGLIRDANQNFGPSYNQGQTVNLSLDLTHNNGKFNNDSHSPKVSSQNRTRSFGHFPGPEFLDVEKTSFSQEQSCDSAGEGSERIHQDSESGDELSSSSTEQIRATTPPNQGRPDSPVYANLQELKISQSALPPLPGSPAIQINGEWETHKDSSGRCYYYNRGTQERTWKPPRWTRDASISKGDFQNPGDQELLSSEENYYSTSYSQSDSQCGSPPRGWSEELDERGHTLYTSDYTNEKWLKHVDDQGRQYYYSADGSRSEWELPKYNASSQQQREIIKSRSLDRRLQEPIVLTKWRHSTIVLDTNDKESPTASKPCFPENESSPSSPKHQDTASSPKDQEKYGLLNVTKIAENGKKVRKNWLSSWAVLQGSSLLFTKTQGSSTSWFGSNQSKPEFTVDLKGATIEMASKDKSSKKNVFELKTRQGTELLIQSDNDTVINDWFKVLSSTINNQAVETDEGIEEEIPDSPGIEKHDKEKEQKDPKKLRSFKVSSIDSSEQKKTKKNLKKFLTRRPTLQAVREKGYIKDQVFGSNLANLCQRENGTVPKFVKLCIEHVEEHGLDIDGIYRVSGNLAVIQKLRFAVNHDEKLDLNDSKWEDIHVITGALKMFFRELPEPLFTFNHFNDFVNAIKQEPRQRVAAVKDLIRQLPKPNQDTMQILFRHLRRVIENGEKNRMTYQSIAIVFGPTLLKPEKETGNIAVHTVYQNQIVELILLELSSIFGR [ARHGAP12]”: the “solubility change mitosis (log2)” value in the data set with HeLa Kyoto [1] was -0.246. Further, the melting temperature in the data set with HeLa Kyoto [2] (cell cycle stage: G1/S) came to 50.7 °C; in the data set on HeLa Kyoto [2] (cell cycle stage: mitosis), 50.1 °C. Moreover, in the data set with HeLa Kyoto [3], the “solubility in G1/S (log2)” value was -0.0332. The thermal stability score in the data set with HeLa Kyoto [4] (setting [5]) is -0.591; in the data set on HeLa Kyoto [4] (cell cycle stage: mitosis), -0.433.

Turning to “MKPAAREARLPPRSPGLRWALPLLLLLLRLGQILCAGGTPSPIPDPSVATVATGENGITQISSTAESFHKQNGTGTPQVETNTSEDGESSGANDSLRTPEQGSNGTDGASQKTPSSTGPSPVFDIKAVSISPTNVILTWKSNDTAASEYKYVVKHKMENEKTITVVHQPWCNITGLRPATSYVFSITPGIGNETWGDPRVIKVITEPIPVSDLRVALTGVRKAALSWSNGNGTASCRVLLESIGSHEELTQDSRLQVNISGLKPGVQYNINPYLLQSNKTKGDPLGTEGGLDASNTERSRAGSPTAPVHDESLVGPVDPSSGQQSRDTEVLLVGLEPGTRYNATVYSQAANGTEGQPQAIEFRTNAIQVFDVTAVNISATSLTLIWKVSDNESSSNYTYKIHVAGETDSSNLNVSEPRAVIPGLRSSTFYNITVCPVLGDIEGTPGFLQVHTPPVPVSDFRVTVVSTTEIGLAWSSHDAESFQMHITQEGAGNSRVEITTNQSIIIGGLFPGTKYCFEIVPKGPNGTEGASRTVCNRTVPSAVFDIHVVYVTTTEMWLDWKSPDGASEYVYHLVIESKHGSNHTSTYDKAITLQGLIPGTLYNITISPEVDHVWGDPNSTAQYTRPSNVSNIDVSTNTTAATLSWQNFDDASPTYSYCLLIEKAGNSSNATQVVTDIGITDATVTELIPGSSYTVEIFAQVGDGIKSLEPGRKSFCTDPASMASFDCEVVPKEPALVLKWTCPPGANAGFELEVSSGAWNNATHLESCSSENGTEYRTEVTYLNFSTSYNISITTVSCGKMAAPTRNTCTTGITDPPPPDGSPNITSVSHNSVKVKFSGFEASHGPIKAYAVILTTGEAGHPSADVLKYTYEDFKKGASDTYVTYLIRTEEKGRSQSLSEVLKYEIDVGNESTTLGYYNGKLEPLGSYRACVAGFTNITFHPQNKGLIDGAESYVSFSRYSDAVSLPQDPGVICGAVFGCIFGALVIVTVGGFIFWRKKRKDAKNNEVSFSQIKPKKSKLIRVENFEAYFKKQQADSNCGFAEEYEDLKLVGISQPKYAAELAENRGKNRYNNVLPYDISRVKLSVQTHSTDDYINANYMPGYHSKKDFIATQGPLPNTLKDFWRMVWEKNVYAIIMLTKCVEQGRTKCEEYWPSKQAQDYGDITVAMTSEIVLPEWTIRDFTVKNIQTSESHPLRQFHFTSWPDHGVPDTTDLLINFRYLVRDYMKQSPPESPILVHCSAGVGRTGTFIAIDRLIYQIENENTVDVYGIVYDLRMHRPLMVQTEDQYVFLNQCVLDIVRSQKDSKVDLIYQNTTAMTIYENLAPVTTFGKTNGYIA [PTPRJ]”, the “solubility change mitosis (log2)” value with HeLa Kyoto [1] was 0.155. Besides, the melting temperature worked out at 50.6 °C in the data set with HeLa Kyoto [2] (cell cycle stage: G1/S) and 50 °C in the data set on HeLa Kyoto [2] (cell cycle stage: mitosis). In addition, in the data set on HeLa Kyoto [3], the “solubility in G1/S (log2)” value was -0.204. The thermal stability score was 3.12 in the data set on HeLa Kyoto [4] (setting [5]) and -2.28 with HeLa Kyoto [4] (cell cycle stage: mitosis).

Regarding “MKPDETPMFDPSLLKEVDWSQNTATFSPAISPTHPGEGLVLRPLCTADLNRGFFKVLGQLTETGVVSPEQFMKSFEHMKKSGDYYVTVVEDVTLGQIVATATLIIEHKFIHSCAKRGRVEDVVVSDECRGKQLGKLLLSTLTLLSKKLNCYKITLECLPQNVGFYKKFGYTVSEENYMCRRFLK [GNPNAT1]”, the “solubility change mitosis (log2)” value with HeLa Kyoto [1] is -0.0779. Further, the melting temperature in the data set with HeLa Kyoto [2] (cell cycle stage: G1/S) was 56.2 °C; in the data set with HeLa Kyoto [2] (cell cycle stage: mitosis) it was 57.5 °C. Further, in the data set with HeLa Kyoto [3], the “solubility in G1/S (log2)” value came to 0.222. The thermal stability score in the data set with HeLa Kyoto [4] (setting [5]) was -0.0383; in the data set on HeLa Kyoto [4] (cell cycle stage: mitosis), -1.14.

Turning to “MKPGATGESDLAEVLPQHKFDSKSLEAYLNQHLSGFGAEREATLTIAQYRAGKSNPTFYLQKGFQTYVLRKKPPGSLLPKAHQIDREFKVQKALFSIGFPVPKPILYCSDTSVIGTEFYVMEHVQGRIFRDLTIPGLSPAERSAIYVATVETLAQLHSLNIQSLQLEGYGIGAGYCKRQVSTWTKQYQAAAHQDIPAMQQLSEWLMKNLPDNDNEENLIHGDFRLDNIVFHPKECRVIAVLDWELSTIGHPLSDLAHFSLFYFWPRTVPMINQGSYSENSGIPSMEELISIYCRCRGINSILPNWNFFLALSYFKMAGIAQGVYSRYLLGNNSSEDSFLFANIVQPLAETGLQLSKRTFSTVLPQIDTTGQLFVQTRKGQEVLIKVKHFMKQHILPAEKEVTEFYVQNENSVDKWGKPLVIDKLKEMAKVEGLWNLFLPAVSGLSHVDYALIAEETGKCFFAPDVFNCQAPDTGNMEVLHLYGSEEQKKQWLEPLLQGNITSCFCMTEPDVASSDATNIECSIQRDEDSYVINGKKWWSSGAGNPKCKIAIVLGRTQNTSLSRHKQHSMILVPMNTPGVKIIRPLSVFGYTDNFHGGHFEIHFNQVRVPATNLILGEGRGFEISQGRLGPGRIHHCMRTVGLAERALQIMCERATQRIAFKKKLYAHEVVAHWIAESRIAIEKIRLLTLKAAHSMDTLGSAGAKKEIAMIKVAAPRAVSKIVDWAIQVCGGAGVSQDYPLANMYAITRVLRLADGPDEVHLSAIATMELRDQAKRLTAKI [ACAD11]”, the “solubility change mitosis (log2)” value in the data set on HeLa Kyoto [1] is -0.0749. For the same sequence, the melting temperature turned out to be 53.9 °C with HeLa Kyoto [2] (cell cycle stage: G1/S) and 52.9 °C with HeLa Kyoto [2] (cell cycle stage: mitosis). Also, the “solubility in G1/S (log2)” value in the data set on HeLa Kyoto [3] was -0.0959. Further, the figures for the thermal stability score with HeLa Kyoto [4] (setting [5]) and in the data set with HeLa Kyoto [4] (cell cycle stage: mitosis) were 0.241 and -0.505, respectively.

Consider “MKPGFSPRGGGFGGRGGFGDRGGRGGRGGFGGGRGRGGGFRGRGRGGGGGGGGGGGGGRGGGGFHSGGNRGRGRGGKRGNQSGKNVMVEPHRHEGVFICRGKEDALVTKNLVPGESVYGEKRVSISEGDDKIEYRAWNPFRSKLAAAILGGVDQIHIKPGAKVLYLGAASGTTVSHVSDIVGPDGLVYAVEFSHRSGRDLINLAKKRTNIIPVIEDARHPHKYRMLIAMVDVIFADVAQPDQTRIVALNAHTFLRNGGHFVISIKANCIDSTASAEAVFASEVKKMQQENMKPQEQLTLEPYERDHAVVVGVYRPPPKVKN [FBL]”, for which, in the data set with HeLa Kyoto [1], the “solubility change mitosis (log2)” value is 1.49. Further, the values for the melting temperature with HeLa Kyoto [2] (cell cycle stage: G1/S) and with HeLa Kyoto [2] (cell cycle stage: mitosis) were 52.9 °C and 51.5 °C, respectively. For the same sequence, the “solubility in G1/S (log2)” value in the data set with HeLa Kyoto [3] was -1.97. Further, the thermal stability score was -1.06 with HeLa Kyoto [4] (setting [5]) and -3.39 in the data set with HeLa Kyoto [4] (cell cycle stage: mitosis).
